Measurements published in IntAct's records for PubMed 22484091.

B1: Charged multivesicular body protein 4b (Homo sapiens), Q9H444 (parent)
chain: MSVFGKLFGAGGGKAGKGGPTPQEAIQRLRDTEEMLSKKQEFLEKKIEQELTAAKKHGTKNKRAALQALKRKKRYEKQLAQIDGTLSTIEFQREALENANTNTEVLKNMGYAAKAMKAAHDNMDIDKVDELMQDIADQQELAEEISTAISKPVGFGEEFDEDELMAELEELEQEELDKNLLEISGPETVPLPNVPSIALPSKPAKKKEEEDDDMKELENWAGSM
B2: BRO1 domain-containing protein BROX (Homo sapiens), Q5VW32 (parent)
chain: MTHWFHRNPLKATAPVSFNYYGVVTGPSASKICNDLRSSRARLLELFTDLSCNPEMMKNAADSYFSLLQGFINSLDESTQESKLRYIQNFKWTDTLQGQVPSAQQDAVFELISMGFNVALWYTKYASRLAGKENITEDEAKEVHRSLKIAAGIFKHLKESHLPKLITPAEKGRDLESRLIEAYVIQCQAEAQEVTIARAIELKHAPGLIAALAYETANFYQKADHTLSSLEPAYSAKWRKYLHLKMCFYTAYAYCYHGETLLASDKCGEAIRSLQEAEKLYAKAEALCKEYGETKGPGPTVKPSGHLFFRKLGNLVKNTLEKCQRENGFIYFQKIPTEAPQLELKANYGLVEPIPFEFPPTSVQWTPETLAAFDLTKRPKDDSTKPKPEEEVKPVKEPDIKPQKDTGCYIS
partner: B1 chain
B3: BRO1 domain-containing protein BROX (Homo sapiens), Q5VW32 (parent)
chain: B2 chain

Variants of: B1
Conditions: with brox_human BROX

effect of a mutation on the interaction | Variant
decreasing interaction strength | W220A
decreasing interaction strength | L217A

Variants of: B2
Conditions: with chm4b_human CHMP4B

effect of a mutation on the interaction | Variant
disrupting interaction strength | L208D;L212D

Variants of: B3
Conditions: with CHMP5, Q9NZZ3-1
Sequence of CHMP5, Q9NZZ3-1 (Q9NZZ3 whole entry): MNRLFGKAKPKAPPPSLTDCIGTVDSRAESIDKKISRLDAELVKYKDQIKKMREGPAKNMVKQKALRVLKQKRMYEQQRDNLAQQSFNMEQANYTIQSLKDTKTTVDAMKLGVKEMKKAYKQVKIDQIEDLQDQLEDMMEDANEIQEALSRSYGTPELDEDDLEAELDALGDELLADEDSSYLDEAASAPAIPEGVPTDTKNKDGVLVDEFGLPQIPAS

effect of a mutation on the interaction | Variant
disrupting interaction strength | L208D;L212D
disrupting interaction strength | Y348A
disrupting interaction strength | H204A
